According to patent US7754689B2, “Finger-1 peptide analogs of the TGF-β superfamily” (Wyeth LLC, priority 2006, dated 2010):

Legend:
[1] = tested on: BMP-3 and BMP-12; assay: HPLC columns of BMP affinity resins loaded with BMP-3 and BMP-12; type: binding; conditions: columns loaded with BMP-3 and BMP-12
Source text: These columns were used loaded with BMP-3 and BMP-12. […] In some cases, size exclusion or reverse phase chromatography techniques were employed to enhance purification.

[2] = biological target: T1, BMP-3 (Homo sapiens, UniProt P12645); assay: Affinity column chromatography, capture and elution of BMP-3; type: binding
T1 construct: a propeptide fragment copurifies along with the mature protein; made in house; host or cells: CHO cells (conditioned medium)
T1 sequence (P12645 363-472): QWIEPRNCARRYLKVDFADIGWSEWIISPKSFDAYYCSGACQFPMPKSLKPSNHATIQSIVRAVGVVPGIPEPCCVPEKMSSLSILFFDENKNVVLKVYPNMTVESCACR
Experimental: BMP-12 was immobilized on NHS-activated Sepharose™ beads at a ratio of about 20 mg:4 mL and the resulting media combined with water or neutral saline buffer to prepare a column. CHO-conditioned media augmented with 1.2 M NaCl was loaded onto the column. In some cases, the media was preconcentrated with respect to BMP before loading. The column was washed with 15 CV (column volumes) of 1.2 M NaCl in 40 mM Na2HPO4 at pH 7.2, followed by 0.5 M arginine/0.5 M NaCl in 20 mM Tris at pH 7.5 (15 CV) and a low salt wash (50 mM ammonium acetate at pH 7, 15 CV). […] Finally, the column was eluted with 5CV of the acetic acid solution with 6M guanidine hydrochloride (GuHCl).
The eluate was analyzed using HPLC.
4 mL of the resulting resin (1.6×2.0 cm) was used to prepare a column. The column was loaded with BMP-3 and eluted as in Example 1.

capture of BMP-3 by column with immobilized ligand ([2]; CHO-conditioned media with 1.2 M NaCl (high salt) load): effectively captured
elution of BMP-3 from column with immobilized ligand ([2]; washes, then gradient to 50 mM acetic acid pH 3, then 6M GuHCl): eluted with acetic acid
B1: BMP-12: Bone Morphogenic Protein, member of the TGF-β superfamily; tested in solution and immobilized on Sepharose beads as affinity ligand (protein)
chain: TALAGTRTAQGSGGGAGRGHGRRGRSRCSRKPLHVDFKELGWDDWIIAPLDYEAYHCEGLCDFPLRSHLEPTNHAIIQTLLNSMAPDAAPASCCVPARLSPISILYIDAANNVVYKQYEDMVVEACGCR
effectiveness as affinity ligand for reverse phase HPLC [1]: equally effective
